Tested on: A. ceylanicum
Test: Hamster vaccine trial Ham V-IV with Quil A, oral challenge with 100 A. ceylanicum L3
Format: in vivo, Syrian hamster
Conditions: for Adult Hookworms, Mean: 10 hamsters per group, Quil A control 48.9; for Spleen weights, Median: Quil A control 0.45; for Spleen weights, Mean: Quil A control 0.47; for Adult Hookworms, Median: Quil A control 53.0; for Percent reduction (EPG) relative to Quil A / Percentage Hb Increase Relative to control (QuilA) / Percentage Reduction (adult hookworms) Relative to Quil A: hamster, in vivo; for EPG Mean ± SD: hookworm eggs per gram, two cages per group; for Body Weight % Reduction, Median / Body Weight % Reduction, Mean / Hb % change, Mean / Hb % change, Median: necropsy relative to time of infection; for Body Weight % Reduction, Median: Quil A control 7.8; for Body Weight % Reduction, Mean: Quil A control 7.9; for Hb % change, Mean / Hb % change, Median: minus = decrease; for Hb % change, Mean: Quil A −29.7; for Hb % change, Median: Quil A −32.5
Protocol: Brief Outline of Study Sections: Purpose bred Syrian hamsters are randomized into eight groups. Seven groups will receive candidate vaccines: ASP-1, ASP-2, MTP, and Irradiated larvae. One group receives only the adjuvant (Quil A) as experimental control. Each animal's specific antibody response is evaluated by direct ELISA using serum taken prior to the infective challenge. […] Quantitative ova counts, used to evaluate worm burden, are made from fecal samples collected twice after larval challenge. Also, hemoglobin levels will be tested to detect anemia caused by the blood loss during adult hookworm infection. The final report will evaluate the data and provide conclusions regarding each vaccine's effectiveness both in terms of worm burden and blood loss.
Test and Control Identification: The antigens are ASP-1, ASP-2, and MTP. The antigen-adjuvant combinations will be ASP-1+Quil A, ASP-2+Quil A, MTP+Quil A, ASP-1+ASP-2+Quil A, ASP-2+MTP+Quil A and ASP-1+MTP+Quil A. One group, which receives irradiated L3 serve as the positive control. The negative control group will receive only Quil A. Details about the antigen and the adjuvants will be included in the study records when they become available.
The test articles are diluted to provide a dose of 0.025 mg of antigen in 200 ul of antigen-adjuvant mixture per animal per injection. All injections will be performed intramuscularly (i.m). The prescribed volume dose information is recorded by Dr. Ghosh. Fresh preparation of antigens will be made the day of injection.
Administration of Test and Control Articles: The vaccines and adjuvant are administered intramuscularly (IM) three (3) times beginning when the hamsters are 28±2 days old. The vaccines are boosted at 21 days (3 weeks) intervals.
Challenge Infection: Ancylostoma ceylanicum larvae are cultured from the eggs collected in the feces of infected hamsters by qualified technicians in the Dr. Hotez lab. All hookworms in the infective challenge are approximately equal age (10±5 days). The species identity of the infective larva dose is validated, using PCR DNA amplification and specific oligonucleotide primers. All hamsters are infected by orally with the same dose of 100+/−10 3rd stage larvae of A. celyanicumfs. Larval challenge occurs on the same day for all hamsters (at age 82±2 days). Clinical Observations: The hamsters are observed daily and are weighed at least every 7 days post-challenge. Hamsters that develop signs of moderate to severe anemia, or develop a loss of body weight greater than 15% are observed more frequently. Prior to larvae infection and at least one time every 7-10 days, blood samples are collected from all hamsters. Blood withdrawal should be approximately equal in amount from all hamsters and at this time, the stool will be checked for blood.
A pre-vaccination blood sample will be examined for Hemoglobin; a sample of serum will be frozen. A hemoglobin test is performed 6-10 days and 12-18 days post-challenge. Samples of serum will be collected from each hamster; pre-immune, after 2 boosts, and after larval challenge. These samples will be labeled with unique identifiers (nature of the specimen, study-hamster number and collection date) and frozen for possible future analysis.
Quantitative Egg Counts (QEC): One week following parasite dosing, fecal examination for ova begins and will be repeated once a week until the study is terminated. The ova count method will be performed according to the SOP, which is a modification of the McMaster technique (Veterinary Clinical Pathology, 6th ed., 1994, page 9-10). The test will be performed the same way each time in order to quantitate the ova count. Fecal specimens from the hamsters will be identified by the hamster study number and the unique hamster identification number. The ova are counted in a McMaster chamber under a binocular microscope and recorded. […]

B1: Ay-ASP-1: A. ceylanicum secreted protein 1, SEQ ID NO: 56; Pichia pastoris expressed (protein, listed as Ancylostoma ceylanicum)
chain: FSPVVVISVVLTVAFCDASPVKASFGCSNSGITDSDRQAFLDFHNNARRRVAQGVEDNKSGKLNPAKNMYKLDWDCEMEQKLQDAIQSCPGGFAGIQGVAQNIISWSGSGGFPNPSEKINSTLASWWGGAKNNGVASDNKYTGGGLYAFSNMVFSETTKLGCAYKVCGTKLTLSCYNGIGYMTGAPMWETGQACKAGADCTTFKNSGCEDGLCTKGADVPETNQQCPSNTGMTDSVRDTFLSLHNEFRSSVARGLEPDALGGNAPKASKMLKMVYDCEVEASAIRHGNKCVYQHSHGDERPGLGENIYKTSIVKFEKNKAAKQASQLWWNELKEFGVGPSNMLTDAWNRPNMQIGHYTQMAWESTYKLGCAVIFCNDFTFGVCQYGPGGNYMNHLIYTIGQPCSECEATATCSVTEGLCSAP
Adult Hookworms, Mean: 30.9 | Spleen weights, Median: 0.48 (0.48) ± 0.10 gr | Spleen weights, Mean: 0.48 (0.48) ± 0.10 gr | Adult Hookworms, Median: 36.0 | Percent reduction (EPG) relative to Quil A: 59.0% | Percentage Hb Increase Relative to control (QuilA): 32.7% | Percentage Reduction (adult hookworms) Relative to Quil A: 36.8% | EPG Mean ± SD: 912.5 ± 17.7 | Body Weight % Reduction, Median: 4.4% | Body Weight % Reduction, Mean: 3.4% | Hb % change, Mean: −13.3% | Hb % change, Median: −20.0%

B2: Ay-ASP-2: A. ceylanicum secreted protein 2, SEQ ID NO: 58; Pichia pastoris expressed (protein, listed as Ancylostoma ceylanicum)
chain: VLVPLLVLLAVSVDANSVRCGNNGMTDEARQKFLDMHNGYRSQVAKGQAKDALSGNAPKAAKMKKMVYDCGVESTAMQNAKKCVFTHSHMKGLGENIWMTTAREMDKVKSAEQASQGWFSELAEYGVGPENKLTMQLWNRPNTQIGHYTQMVWQDTYKLGCYVEWCSSMTYGVCQYSPQGNMMNSIIYEKGNPCTQDSDCGSNARCTADKALCIVHG
Adult Hookworms, Mean: 33.2 | Spleen weights, Median: 0.47 gr | Spleen weights, Mean: 0.44 gr | Adult Hookworms, Median: 39.5 | Percent reduction (EPG) relative to Quil A: 47.2% | Percentage Hb Increase Relative to control (QuilA): 55.2% | Percentage Reduction (adult hookworms) Relative to Quil A: 32.1% | EPG Mean ± SD: 1175.0 ± 176.7 | Body Weight % Reduction, Median: 4.9% | Body Weight % Reduction, Mean: 4.2% | Hb % change, Mean: −9.2% | Hb % change, Median: −13.3%

B3: Ay-MTP-1: A. ceylanicum astacin protease antigen, SEQ ID NO: 60 (protein, listed as Ancylostoma ceylanicum)
chain: MRVFLLVLLLAICASAGFFDTKLGEKIKKTLGKIKAALNGTLLMKIREKFIALREKIKAKLKLSPARKALLGEIMKHIIKIKKDKIQEKGDSIEEINSKSAIGELLYQGDIVLTNKQAQEIVDIEGDENDRGKRQAFRDRNYPRTLWSKGVYYYFHGNATPEVRSVFTKGARLWMKDTCIDFFESNSAPDRIRVFKEQGCWSYVGRIGGQQDLSLGKGCESVGTAAHEIGHAIGFYHTHSRHDRDNFITFNAQNVKPDWLDQFTKQTPATNENYGITYDYGSIMHYGANSASANGQPSMVPFDPKYVETLGSPIISFYELLMINKPYECTKNCDPNTSAQCKMGGFPHPRDCGRCICPSGYGGQLCDQKPSGCGSILQATAQYQNLHDKRGNEAAGQRPREDMDFCYYWITAPQGSRIEIKIADLSRGAAVDGCQYWGVEIKTHADQRLTGYRFCAPEDVGRTLVSNSNIVPIITYNFYATTVDIQYRIVGGNVGGPRPQPQPNSNCVDNEQCATLIRTKNFCQSRSFTESVKRGLCPKACGFCR
Adult Hookworms, Mean: 35.3 | Spleen weights, Median: 0.45 gr | Spleen weights, Mean: 0.42 gr | Adult Hookworms, Median: 40.0 | Percent reduction (EPG) relative to Quil A: 42.7% | Percentage Hb Increase Relative to control (QuilA): 59.9% | Percentage Reduction (adult hookworms) Relative to Quil A: 27.8% | EPG Mean ± SD: 1275.0 ± 777.8 | Body Weight % Reduction, Median: 5.4% | Body Weight % Reduction, Mean: 4.0% | Hb % change, Mean: −3.5% | Hb % change, Median: −11.9%

Source: patent US7303752B2, “Hookworm vaccine” (The George Washington University, priority 2001, dated 2007)
